Publication PMC3799448 (Nucleic Acids Research, 2013)

Tests used:
[1] = biological target: T1, RAD51 (wild-type human RAD51 DNA strand exchange protein) (human, UniProt Q06609 1-339); assay: fluorescence polarisation
T1 sequence: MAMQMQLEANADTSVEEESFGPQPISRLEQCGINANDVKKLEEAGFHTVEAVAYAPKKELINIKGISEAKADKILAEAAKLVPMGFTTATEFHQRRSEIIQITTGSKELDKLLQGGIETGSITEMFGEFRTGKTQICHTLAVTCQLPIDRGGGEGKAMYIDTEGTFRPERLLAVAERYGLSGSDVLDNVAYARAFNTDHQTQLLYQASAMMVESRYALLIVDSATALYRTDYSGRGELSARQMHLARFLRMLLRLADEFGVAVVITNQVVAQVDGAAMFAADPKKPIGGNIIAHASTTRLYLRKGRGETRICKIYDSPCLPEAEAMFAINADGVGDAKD

RAD51 E237A = RAD51 E237A (human, UniProt Q06609 1-339, E237A); assay: FRET
RAD51 E42A = RAD51 E42A (human, UniProt Q06609 1-339, E42A); assay: FRET
RAD51 E59A = RAD51 E59A (human, UniProt Q06609 1-339, E59A); assay: FRET
RAD51 wild type = RAD51 wild type (human, UniProt Q06609 1-339); assay: FRET

Binder	Kd [1] [nM]	binding result (RAD51 E237A)	binding result (RAD51 E42A)	binding result (RAD51 E59A)	binding result (RAD51 wild type)
KEPTLLGFHTASGKKVKIAKESLDKVKNLFDEKEQ (FITC (fluorescein) on the N-terminus, as printed: FITC-KEPT...) [FITC-BRC4 peptide (BRC4 repeat of BRCA2)]	34 ± 5	–	–	–	–
dT60 (poly(dT)-60) (ssDNA) DNA: TTTTTTTTTTTTTTTTTTTTTTTTTTTTTTTTTTTTTTTTTTTTTTTTTTTTTTTTTTTT	–	binds	binds	binds	binds
